Assay results as given in patent US20030215874A1 (published 2003).

Key:
[1] = target: the molecule itself; assay: blue native PAGE (legend of FIG. 4), self-association
[2] = target: the molecule itself; assay: blue native PAGE (BN-PAGE), self-association

B1: bis-ANS treated GRP94 (porcine pancreas GRP94 preincubated with bis-ANS) (other, UniProt Q29092 22-804, looked up)
chain: EDEVDVDGTVEEDLGKSREGSRTDDEVVQREEEAIQLDGLNASQIRELREKSEKFAFQAEVNRMMKLIINSLYKNKEIFLRELISNASDALDKIRLISLTDENALAGNEELTVKIKCDKEKNLLHVTDTGVGMTREELVKNLGTIAKSGTSEFLNKMAEAQEDGQSTSELIGQFGVGFYSAFLVADKVIVTSKHNNDTQHIWESDSNEFSVIADPRGNTLGRGTTITLVLKEEASDYLELDTIKNLVKKYSQFINFPIYVWSSKTETVEEPMEEEEAAKEEKEESDDEAAVEEEEEEKKPKTKKVEKTVWDWELMNDIKPIWQRPSKEVEDDEYKAFYKSFSKESDDPMAYIHFTAEGEVTFKSILFVPTSAPRGLFDEYGSKKSDYIKLYVRRVFITDDFHDMMPKYLNFVKGVVDSDDLPLNVSRETLQQHKLLKVIRKKLVRKTLDMIKKIADEKYNDTFWKEFGTNIKLGVIEDHSNRTRLAKLLRFQSSHHPSDITSLDQYVERMKEKQDKIYFMAGSSRKEAESSPFVERLLKKGYEVIYLTEPVDEYCIQALPEFDGKRFQNVAKEGVKFDESEKSKENREAVEKEFEPLLNWMKDKALKDKIEKAVVSQRLTESPCALVASQYGWSGNMERIMKAQAYQTGKDISTNYYASQKKTFEINPRHPLIRDMLRRVKEDEDDKTVSDLAVVLFETATLRSGYLLPDTKAYGDRIERMLRLSLNIDPDAKVEEEPEEEPEETTEDTTEDTEQDDDEEMDAGADEEEQETSETSTAEKDEL
binding result [1]: binds

B2: heat shocked GRP94 (porcine pancreas GRP94 incubated 15 minutes at 50 C) (other, UniProt Q29092 22-804, looked up)
chain: B1 chain
notes: also called hs GRP94; heat-treated GRP94
binding result [2]: binds

B3: GRP94 (glucose regulated protein of 94 kDa), native, purified from porcine pancreas (other, UniProt Q29092 22-804, looked up)
chain: B1 chain
notes: also called native GRP94; gp96
binding result [2]: binds
